Results taken from patent US20120195913A1 (Novartis, published 2012).
Changes are numbered by the printed parent chain.

T1: human BAFF receptor (BAFFR) (human, UniProt Q96RJ3 1-184)
T1 construct: On Raji cells (endogenous), on transfected HEK293-hBAFFR cells, and on primary human blood B cells in the functional assays; also called hBAFFR; BR3
T1 sequence: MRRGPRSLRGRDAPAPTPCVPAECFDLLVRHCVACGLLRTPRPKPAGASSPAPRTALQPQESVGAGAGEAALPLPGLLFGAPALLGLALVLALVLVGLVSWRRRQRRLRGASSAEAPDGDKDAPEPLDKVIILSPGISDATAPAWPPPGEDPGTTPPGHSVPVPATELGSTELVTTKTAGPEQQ

T2: BCMA on transfected HEK293 cells (UniProt Q02223 1-184, limits assumed)
T2 construct: whole, on cells
T2 sequence (looked up): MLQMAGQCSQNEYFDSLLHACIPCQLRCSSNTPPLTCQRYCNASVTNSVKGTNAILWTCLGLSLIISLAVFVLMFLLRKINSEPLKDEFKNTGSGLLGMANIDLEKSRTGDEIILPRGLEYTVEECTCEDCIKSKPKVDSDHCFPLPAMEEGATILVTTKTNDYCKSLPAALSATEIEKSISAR

T3: BAFFR:Fc fusion protein (human, UniProt Q96RJ3 1-78, biotinylated in the competition ELISA)
T3 construct: Bought reagent; also called human BAFFR:Fc; bio-BAFFR:Fc; not shown: Fc part of the bought fusion protein (Alexis / Axxora)
T3 sequence: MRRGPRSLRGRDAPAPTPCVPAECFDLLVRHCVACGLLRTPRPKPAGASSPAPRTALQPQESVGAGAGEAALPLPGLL

T4: recombinant BCMA Fc-fusion protein (UniProt Q02223 1-54, limits assumed)
T4 construct: not shown: Fc part
T4 sequence (looked up): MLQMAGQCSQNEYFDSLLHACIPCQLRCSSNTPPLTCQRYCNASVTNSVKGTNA

B1: MOR07342 Fab (Fab, V domains shown)
VH: QVQLQQSGPGLVKPSQTLSLTCAISGDSVSSNSAAWGWIRQSPGRGLEWLGRIYYRSKWYNNYAVSVKSRITINPDTSKNQFSLQLNSVTPEDTAVYYCARYKWVPKIGVFDSWGQGTLVTVSS
VL: DIVLTQSPATLSLSPGERATLSCRASQMIDLRYLSWYQQKPGQAPRLLIYGSSSRATGVPARFSGSGSGTDFTLTISSLEPEDFAVYYCQQFYSSPLTFGQGTKVEIK
notes: Human Fab format
B2: MOR07348 Fab (Fab, V domains shown)
VH: B1 VH with N62S, K103D, S113L
VL: B1 VL with M28W, D30E, L31A, R32G, F92L, L97M
notes: Human Fab format; also called MOR7348; MOR007348
B3: MOR07349 Fab (Fab, V domains shown)
VH: B1 VH with Y60W, N62D, K103D, S113G
VL: B1 VL
notes: Human Fab format
B4: MOR06743 Fab (Fab, V domains shown)
VH: B1 VH with N62S, K103D
VL: B1 VL with F92L, L97M
notes: Human Fab format; also called MOR6743
B5: MOR07347 Fab (Fab, V domains shown)
VH: B1 VH with N62S, K103Q
VL: B1 VL with M28E, D30L, L31P, R32E
notes: Human Fab format
B6: MOR07685 Fab (Fab, V domains shown)
VH: B1 VH with N62S, K103Q
VL: B1 VL with F92L, L97M

target: T1, human BAFF receptor (BAFFR); assay: FACS titration of Fab on Raji cells (endogenous BAFFR)
Method: (§1) The EC₅₀ of the Fabs is determined by Fab titration in FACS on transfected HEK293 cells as well as on Raji cells expressing endogenous BAFFR.

Row | Binder | EC50
1 | B1 | 60 pM
2 | B2 | 120 pM
3 | B3 | 130 pM

target: T2, BCMA on transfected HEK293 cells; assay: FACS on BCMA-transfected HEK293 cells
Method: In FACS the following Fabs are analyzed on BCMA-transfected HEK293 cells and titrated from 1 μM down to 0.005 nM: MOR06654, MOR06743, MOR07342, MOR07347, MOR7348 and MOR07349. At 330 nM only MOR07342 show an elevated binding signal which is 2-fold over background. All other tested Fabs show no signal at this concentration.

Row | Binder | binding result
4 | B2 | no binding (tested: 1 µM)
5 | B3 | no binding (tested: 1 µM)

target: T3, BAFFR:Fc fusion protein; assay: BLyS/BAFFR:Fc competition ELISA; antibody titrated, BLyS coated
Method: 96-well MaxiSorp plates are coated over night at 4° C. with human soluble BLyS. After coating, the wells were washed 4 times with PBS/0.05% Tween20 (PBST) and then blocked for 1 h at 37° C. with PBST containing 1% bovine serum albumin followed by 4 washing steps with PBST. Biotinylated human BAFFR:Fc fusion protein (Axxora) at 20 ng/ml was added and captured for 1 h at 37° C. together with increasing concentrations of anti-BAFFR antibodies. After another washing round, ExtrAvidin-Alkaline Phosphatase (Sigma) was added to the wells and incubated for 30 minutes at 37° C. The bound phosphatase was detected by adding a solution containing p-nitrophenyl phosphate in diethanolamin (Sigma). The color reaction was stopped after ca. 20 minutes with an equal volume of 2N sodium hydroxide and the absorbance was measured at 405 nm on a plate reader (SpectraMax 190, Molecular Devices).

Row | Binder | IC50
6 | B4 | 100 pM
7 | B1 | 140 pM
8 | B5 | 100 pM
9 | B2 | 960 pM
10 | B3 | 440 pM

target: T4, recombinant BCMA Fc-fusion protein; assay: ELISA titration on Fc-captured antigen
Method: (§2) 384-well MaxiSorp plates are coated over night at 4° C. with a goat anti-human IgG, Fc γ fragment specific capture antibody. After coating the wells were washed twice with PBS/0.05% Tween20 (PBST) and then blocked for 1 h at RT with PBST containing 5% milk powder followed by two washing steps with PBST. Recombinant BCMA and TACI Fc-fusion proteins are added and captured for 1 h at RT. Then the purified and diluted BAFFR specific Fabs are added and the plates are incubated for 1 h at RT. To detect the Fabs, an alkaline phosphatase (AP)-conjugated goat anti-human IgG, Fab specific is added and the plates are incubated for 1 h at RT. Following each incubation step the wells are washed five times with PBST. For the detection of the AP-conjugates, AttoPhos (Roche) is used according to the manufacturer's instructions. Fluorescence is measured using a TECAN Spectrafluor plate reader.
(§3) In ELISA the Fabs are titrated from 400 nM down to 0.005 nM on […] captured to a Maxisorp plate via an anti-human Fc antibody. Only MOR07342 and MOR07346 show some cross-reactivity to BCMA at high Fab concentrations >100 nM. In contrast MOR06654, MOR07347, MOR07348, MOR07349 show no binding to BCMA above background. A 1000-fold discrimination factor is met by all Fabs.

Row | Binder | discrimination factor (BAFFR over BCMA)
11 | B1 | ≥ 1000 fold
12 | B5 | ≥ 1000 fold
13 | B2 | ≥ 1000 fold
14 | B3 | ≥ 1000 fold

target: T1, human BAFF receptor (BAFFR); assay: FACS titration of Fab on transfected HEK293-hBAFFR cells
Method: as §1

Row | Binder | EC50
15 | B1 | 180 pM
16 | B5 | 80 pM
17 | B2 | 240 pM
18 | B3 | 240 pM

target: T1, human BAFF receptor (BAFFR); assay: cell-based or functional assay

Row | Binder | B-cell proliferation Agonism EC50 | B-cell proliferation Inhibition IC50
19 | B4 | > 187000 pM | 2000 pM
20 | B1 | > 187000 pM | 900 pM
21 | B5 | > 187000 pM | 1300 pM
22 | B2 | > 187000 pM | 2900 pM
23 | B3 | > 187000 pM | 3500 pM

target: T1, human BAFF receptor (BAFFR); assay: competition FACS on Raji cells; Fab titrated, competitor biotinylated hsBLyS
Method: The BAFFR-BLyS binding assay is performed using Raji cells expressing endogenous BAFFR. The BAFFR specific Fabs are used in final dilutions ranging from 40 to 0.001 nM. The diluted Fabs are incubated in 96-well plates with 5×10⁴ Raji cells per well for 1 h at 4° C. on a shaker. Then biotinylated hsBLyS is added in a final concentration of 25 ng/ml and the cells were incubated for 30 min at 4° C. on a shaker. The cells are washed twice with FACS buffer and then resuspended in phycoerythrin-conjugated Streptavidin (Dianova) which has been diluted 1:200 in FACS buffer. The staining is performed for one hour at 4° C. on a shaker. Finally the cells are washed twice with FAGS buffer, resuspended in FACS buffer and BLyS binding to cell surface BAFFR is detected via fluorescence cytometry in the FACSArray instrument (Becton Dickinson).
The IC50 values of the antibodies of the invention in a human Fab format are determined in a BAFFR-BLyS binding inhibition assay by Fab titration on Raji cells (FACS).

Row | Binder | IC50
24 | B1 | 90 pM
25 | B5 | 20 pM
26 | B2 | 200 pM
27 | B3 | 170 pM
28 | B6 | 120 pM

target: T4, recombinant BCMA Fc-fusion protein; assay: ELISA on Fc-captured recombinant BCMA Fc-fusion
Method: as §2, §3

Row | Binder | binding result
29 | B5 | no binding (tested: titrated from 400 nM down to 0.005 nM)
30 | B2 | no binding (tested: titrated from 400 nM down to 0.005 nM)
31 | B3 | no binding (tested: titrated from 400 nM down to 0.005 nM)
